Changes are numbered by the printed parent chain.
B1: anti-alkylphenol monoclonal antibody: monoclonal antibody (IgG2b, kappa) produced by mouse hybridoma AP-14 (FERM BP-6633) (antibody, V domains shown)
VH: QVQLQQSAAELARPGASVKMSCKASGYRFTRYTMHWVKQRPGQGLEWIGNINPSSGDTEYNQKFKDKTTLTADKSSTTAYMQLSSLTSEDSAVYYCATPIFYYGSRYVRYEMDYWGQGTSVTVSS
VL: DIVMTQAAFSNPVTLGTSTSISCRSTKSLLHSNGITYLYWYLQKPGQSPQLLIYQMSNLASGVPDRFSSSGSGTDFTLRISRVEAEDVGVYYCAQNLELPYTFGGGTKLEIKR
modifications: Mouse
B2: anti-alkylphenolethoxylate monoclonal antibody: monoclonal antibody (IgG1, kappa) produced by mouse hybridoma MOF3-139 (FERM BP-6059) (antibody, V domains shown)
VH: QVQLQQSGAELMKPGASVKISCKVTGYTFRSYWIEWVKQRPGHGLEWIGEILVGSGSTKYNEKFKGKATITAQTSSNTVYMQLSSLTSEDSAVYYCARPFFGSRYDYSDFWGQGTTLTVSS
VL: B1 VL with T17S, T19A, T26S, S32R, L51V
modifications: Mouse

What was measured:
[1] = indirect competitive ELISA, nonylphenol standard solution; type: binding; settings: FIG. 5; cross-reactivity (%)=[IC50 of NP10EO/IC50 of test compound]x100
Method: (§1) A nonylphenoldecaethoxylate (NPLOEO) standard solution was used in (A), a nonylphenoxyacetic acid (NPLEC) standard solution was used in (B), and a nonylphenol (NP) standard solution was used in (C).
(§2) Moreover, a nonylphenoldecaethoxylate (NPLOEO) standard solution was used in (A) and (B), a nonylphenoxyacetic acid (NPLEC) standard solution was used in (C) and (D) and a nonylphenol (NP) standard solution was used in (E) and (F).
(§3) A conjugate (5 μg/mL) of hapten and bovine serum albumin (BSA) (100 μL/each well) was added to a 96-well microtiter plate and stood at 4° C. overnight. After removing the liquid from the well, 300 μL of Block Ace (purchased from Dainippon Pharmaceutical Co., Ltd.) 4-fold diluted with distillated water was added to each well and stood at 4° C. overnight. After removing the liquid from the well, a standard solution (50 μL) of nonylphenol decaethoxylate stepwise diluted with phosphate buffer (10 mM sodium phosphate (purchased from Nacalai Tesque, Inc.), 150 mM NaCl, pH 7.2) was added to each well. […] The mixture was incubated at 25° C. for 1 hr and each well was washed 4 times with a phosphate buffer. Then, 100 μL of mouse anti-HSV tagged antibody (purchased from Amersham Pharmacia Biotech), diluted with a phosphate buffer to 0.1 μg/mL, was added to each well and the mixture was incubated at 25° C. for 1 hr. […] The absorbance at wavelength of 450 nm was measured.

[2] = indirect competitive ELISA, nonylphenoxyacetic acid standard solution; type: binding; settings: FIG. 5; cross-reactivity (%)=[IC50 of NP10EO/IC50 of test compound]x100
Method: as §1, §2, §3

Molecule	cross-reactivity with NP [1]	cross-reactivity with NP1EC [2]
B1	shows cross-reactivity	shows cross-reactivity
B2	hardly shows cross-reactivity	hardly shows cross-reactivity
